These results are taken from patent publication US20050032692A1.

Experiment [1] has as its target CBP protein (CREB Binding Protein). Kind of experiment: cell-based or functional assay.
In the next experiment the target is Cdk1 protein (UniProt P06493). In words: cell-based or functional assay.
Cdk1 protein, sequence (P06493 whole entry): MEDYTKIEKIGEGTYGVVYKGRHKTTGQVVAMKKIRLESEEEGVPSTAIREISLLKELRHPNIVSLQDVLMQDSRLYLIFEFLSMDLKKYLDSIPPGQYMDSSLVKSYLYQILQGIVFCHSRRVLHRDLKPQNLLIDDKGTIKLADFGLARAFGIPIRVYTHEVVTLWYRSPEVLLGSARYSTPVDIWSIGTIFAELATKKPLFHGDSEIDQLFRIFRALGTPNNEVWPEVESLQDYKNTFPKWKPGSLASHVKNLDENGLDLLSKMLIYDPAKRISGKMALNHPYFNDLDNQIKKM

As for “T7-FoxM1B WT protein (CMV T7-FoxM1B WT) (from UniProt Q08050 1-763)”, the FoxM1B transcriptional activity (6x FoxM1B TATA-luciferase reporter, U2OS cells) (% stimulation) in experiment [1] was determined as 50.
For “CMV T7-FoxM1B L641A mutant protein (from UniProt Q08050 1-763)”, in the experiment with Cdk1 protein, the FoxM1B transcriptional activity (6x FoxM1B TATA-luciferase reporter, U2OS cells) amounted to 80 % reduction.
